Assay results as given in patent US20150098945A1 (Daiichi Sankyo, published 2015).

How the values were obtained:
[1] = target: T1, N-terminal FLAG-tagged human ROBO4 extracellular region/domain deletion variant hROBO4-225 (human, UniProt Q8WZ75 225-1007); assay: flow cytometry, HEK293 cells transfected with pCI-FLAG-hROBO4-225, anti-mouse IgG FITC; control histogram IgG (Mouse IgG2a)
T1 construct: On transfected HEK293 cells
T1 sequence: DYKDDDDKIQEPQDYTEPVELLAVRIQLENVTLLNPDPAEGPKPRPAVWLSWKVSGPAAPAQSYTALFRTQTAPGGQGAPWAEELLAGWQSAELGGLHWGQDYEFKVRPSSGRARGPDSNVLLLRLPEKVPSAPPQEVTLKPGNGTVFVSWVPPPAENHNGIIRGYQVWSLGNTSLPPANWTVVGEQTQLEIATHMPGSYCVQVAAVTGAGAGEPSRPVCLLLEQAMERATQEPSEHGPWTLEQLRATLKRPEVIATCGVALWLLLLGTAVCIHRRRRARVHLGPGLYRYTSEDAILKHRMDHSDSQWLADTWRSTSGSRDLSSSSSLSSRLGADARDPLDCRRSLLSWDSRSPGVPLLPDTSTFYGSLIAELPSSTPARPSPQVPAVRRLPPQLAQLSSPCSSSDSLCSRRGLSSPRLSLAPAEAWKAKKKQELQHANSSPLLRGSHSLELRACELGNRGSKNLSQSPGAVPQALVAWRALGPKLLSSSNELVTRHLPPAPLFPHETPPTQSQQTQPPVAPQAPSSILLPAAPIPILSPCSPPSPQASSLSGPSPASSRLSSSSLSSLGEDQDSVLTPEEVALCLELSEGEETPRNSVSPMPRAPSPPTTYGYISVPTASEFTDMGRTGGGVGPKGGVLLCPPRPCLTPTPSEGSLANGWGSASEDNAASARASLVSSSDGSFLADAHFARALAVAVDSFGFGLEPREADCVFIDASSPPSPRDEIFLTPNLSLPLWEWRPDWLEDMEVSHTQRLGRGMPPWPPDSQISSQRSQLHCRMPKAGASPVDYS
Procedure: Each cell suspension prepared in 4)-5-1 was centrifuged, and the supernatant was removed. Then, MAb1, a positive control Monoclonal ANTI-FLAG M2 antibody produced in mouse, or a negative control Mouse IgG2a was added at a concentration of 10 μg/mL to 2×10⁵ expression vector-transfected cells, and the resulting suspension was left standing at 4° C. for 1 hour. The cells were washed once with PBS containing 5% FBS. Then, Anti-Mouse IgG FITC conjugate diluted 1000-fold with PBS containing 5% FBS was added thereto, and the resulting suspension was left standing at 4° C. for 1 hour. The cells were washed with three times with PBS containing 5% FBS, then resuspended in PBS containing 5% FBS, and subjected to detection using a flow cytometer (BD FACSCalibur; BD Biosciences). Data was analyzed using Flowjo. The histogram of FITC fluorescence intensity was prepared. The antibody was determined to bind to a cell when the histogram of MAb1 was shifted to a stronger fluorescence intensity region compared with the histogram of the negative control Mouse IgG2a. […] In this context, each intracellular region/domain deletion variant was confirmed to be expressed on the cell membrane using the positive control anti-FLAG antibody (FIG. 9).

[2] = target: T2, N-terminal FLAG-tagged full-length human ROBO4 (pCI-FLAG-hROBO4-28) (human, UniProt Q8WZ75 28-1007); assay: flow cytometry, HEK293 cells transfected with pCI-FLAG-hROBO4-28, antibody at 10 µg/mL, anti-mouse IgG FITC; control histogram IgG (Mouse IgG2a)
T2 construct: On transfected HEK293 cells
T2 sequence: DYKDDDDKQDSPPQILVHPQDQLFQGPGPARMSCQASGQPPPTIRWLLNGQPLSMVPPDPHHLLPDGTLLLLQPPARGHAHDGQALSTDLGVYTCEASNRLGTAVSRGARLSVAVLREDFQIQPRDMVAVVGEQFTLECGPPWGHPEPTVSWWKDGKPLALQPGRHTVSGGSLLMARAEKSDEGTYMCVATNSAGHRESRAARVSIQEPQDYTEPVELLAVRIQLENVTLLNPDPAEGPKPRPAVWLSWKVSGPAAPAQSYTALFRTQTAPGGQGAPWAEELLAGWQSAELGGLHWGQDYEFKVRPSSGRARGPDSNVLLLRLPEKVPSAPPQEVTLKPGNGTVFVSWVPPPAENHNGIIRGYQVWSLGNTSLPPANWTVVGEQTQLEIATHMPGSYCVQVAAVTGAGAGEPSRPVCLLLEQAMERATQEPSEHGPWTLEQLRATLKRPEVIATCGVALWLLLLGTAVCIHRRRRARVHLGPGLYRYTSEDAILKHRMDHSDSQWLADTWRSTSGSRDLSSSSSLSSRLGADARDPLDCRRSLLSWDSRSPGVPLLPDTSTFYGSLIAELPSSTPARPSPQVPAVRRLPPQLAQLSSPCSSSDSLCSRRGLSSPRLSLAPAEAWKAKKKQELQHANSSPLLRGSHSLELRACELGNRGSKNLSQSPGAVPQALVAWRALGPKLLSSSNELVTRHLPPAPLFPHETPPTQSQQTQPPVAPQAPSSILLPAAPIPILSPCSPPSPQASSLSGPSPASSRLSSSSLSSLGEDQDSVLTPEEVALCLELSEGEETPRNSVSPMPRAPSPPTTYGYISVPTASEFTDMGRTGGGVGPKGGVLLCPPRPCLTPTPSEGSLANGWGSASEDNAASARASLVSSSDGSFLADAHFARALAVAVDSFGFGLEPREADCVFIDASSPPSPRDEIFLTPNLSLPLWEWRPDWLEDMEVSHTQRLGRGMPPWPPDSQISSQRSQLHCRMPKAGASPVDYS
Procedure: HEK293 cells were inoculated at a concentration of 1.5×10⁶ cells/dish to a 60-mm dish (manufactured by Corning Inc.) and cultured overnight in a DMEM medium containing 10% FBS at 37° C. under 5% CO₂ conditions. […] On the next day, the expression vector-transfected cells were treated with TrypLE Express (manufactured by Life Technologies Corp.), washed with PBS containing 5% FBS, and then suspended in PBS containing 5% FBS. The obtained cell suspension was used in flow cytometry analysis.
Each cell suspension prepared in 4)-5-1 was centrifuged, and the supernatant was removed. Then, MAb1, a positive control Monoclonal ANTI-FLAG M2 antibody produced in mouse, or a negative control Mouse IgG2a was added at a concentration of 10 μg/mL to 2×10⁵ expression vector-transfected cells, and the resulting suspension was left standing at 4° C. for 1 hour. The cells were washed once with PBS containing 5% FBS. Then, Anti-Mouse IgG FITC conjugate diluted 1000-fold with PBS containing 5% FBS was added thereto, and the resulting suspension was left standing at 4° C. for 1 hour. […] Data was analyzed using Flowjo. The histogram of FITC fluorescence intensity was prepared. The antibody was determined to bind to a cell when the histogram of MAb1 was shifted to a stronger fluorescence intensity region compared with the histogram of the negative control Mouse IgG2a. […]

binding result [1]: no binding (tested: 10 µg/mL) | binding result [2]: binds
B1: anti-ROBO4 mouse monoclonal antibody MAb1 (antibody, mouse IgG1, V domains shown)
VH: EVQLVESGGGLVKPGGSLKLSCAASGFTFSTYAMSWVRQTPEKRLEWVATISNGGTYTYYPDSVKGRFTISRDNAENTLYLQMSSLRSEDTAMYFCARLIYYDYLDYWGHGTTLTVSS
VL: DAVMTQTPLSLPVSLGDQASISCRSSQSLENSNGNTYLNWYFQKPGQSPQLLIYRVSNRFSGVLDRFSGSGSGTDFTLKISRVEAEDFGVYFCLQVTHVPWTFGGGTKLEIKR
notes: Mouse IgG1 (gamma1), kappa light chain, purified from hybridoma supernatant; also called parent antibody MAb1
